In US20150276749A1 (KONICA MINOLTA, published 2015):

Tests used:
[1] = target: soluble-type human DSG3-mouse IgG2aFc fusion protein (human; mouse) (UniProt P32926); assay: sandwich ELISA, luminescence over blank; immobilized MAB1720, detection DF151; antigen 1000 pg/mL
[2] = target: soluble-type human DSG3-mouse IgG2aFc fusion protein (human; mouse) (UniProt P32926); assay: sandwich ELISA, luminescence over blank; immobilized MAB1720, detection DF151; antigen 10 pg/mL
[3] = target: soluble-type human DSG3-mouse IgG2aFc fusion protein (human; mouse) (UniProt P32926); assay: sandwich ELISA, antigen in PBS(-); immobilized MAB1720, detection biotinylated D219-3
[4] = target: soluble-type human DSG3-mouse IgG2aFc fusion protein (human; mouse) (UniProt P32926); assay: sandwich ELISA, antigen in PBS(-); immobilized MAB1720, detection biotinylated MAB1720
[5] = target: soluble-type human DSG3-mouse IgG2aFc fusion protein (human; mouse) (UniProt P32926); assay: sandwich ELISA, luminescence over blank; immobilized MAB1720, detection DF151; antigen 200 pg/mL
[6] = target: soluble-type human DSG3-mouse IgG2aFc fusion protein (human; mouse) (UniProt P32926); assay: sandwich ELISA, luminescence over blank; immobilized MAB1720, detection DF151; antigen 25000 pg/mL
[7] = target: soluble-type human DSG3-mouse IgG2aFc fusion protein (human; mouse) (UniProt P32926); assay: sandwich ELISA, luminescence over blank; immobilized MAB1720, detection DF151; antigen 40 pg/mL
[8] = target: soluble-type human DSG3-mouse IgG2aFc fusion protein (human; mouse) (UniProt P32926); assay: SPFS sandwich; immobilized MAB1720, detection DF151; antigen 1,000 pg/mL (µg/mL in the source)
[9] = target: soluble-type human DSG3-mouse IgG2aFc fusion protein (human; mouse) (UniProt P32926); assay: sandwich ELISA, luminescence over blank; immobilized MAB1720, detection DF151; antigen 5000 pg/mL
[10] = target: soluble-type human DSG3-mouse IgG2aFc fusion protein (human; mouse) (UniProt P32926); assay: sandwich ELISA, antigen in PBS(-); immobilized MAB1720, detection biotinylated DF366m
[11] = target: soluble-type human DSG3-mouse IgG2aFc fusion protein (human; mouse) (UniProt P32926); assay: sandwich ELISA, antigen added to human serum; immobilized MAB1720, detection biotinylated DF151
[12] = target: soluble-type human DSG3-mouse IgG2aFc fusion protein (human; mouse) (UniProt P32926); assay: sandwich ELISA, luminescence over blank; immobilized MAB1720, detection DF151; antigen 1 pg/mL
[13] = target: soluble-type human DSG3-mouse IgG2aFc fusion protein (human; mouse) (UniProt P32926); assay: sandwich ELISA, antigen in PBS(-); immobilized MAB1720, detection biotinylated DF151
[14] = target: T1, soluble-type human DSG3-mouse IgG2aFc fusion protein (human; mouse, UniProt P32926 50-616); assay: sandwich ELISA, luminescence over blank; immobilized DF366m, detection MAB1720; antigen 10 pg/mL
T1 construct: also called human desmoglein 3; desmoglein 3 standard; not shown: mouse IgG2a Fc, printed 'mouse IgG2aFc' and 'mouse IgG2 constant region'
T1 sequence: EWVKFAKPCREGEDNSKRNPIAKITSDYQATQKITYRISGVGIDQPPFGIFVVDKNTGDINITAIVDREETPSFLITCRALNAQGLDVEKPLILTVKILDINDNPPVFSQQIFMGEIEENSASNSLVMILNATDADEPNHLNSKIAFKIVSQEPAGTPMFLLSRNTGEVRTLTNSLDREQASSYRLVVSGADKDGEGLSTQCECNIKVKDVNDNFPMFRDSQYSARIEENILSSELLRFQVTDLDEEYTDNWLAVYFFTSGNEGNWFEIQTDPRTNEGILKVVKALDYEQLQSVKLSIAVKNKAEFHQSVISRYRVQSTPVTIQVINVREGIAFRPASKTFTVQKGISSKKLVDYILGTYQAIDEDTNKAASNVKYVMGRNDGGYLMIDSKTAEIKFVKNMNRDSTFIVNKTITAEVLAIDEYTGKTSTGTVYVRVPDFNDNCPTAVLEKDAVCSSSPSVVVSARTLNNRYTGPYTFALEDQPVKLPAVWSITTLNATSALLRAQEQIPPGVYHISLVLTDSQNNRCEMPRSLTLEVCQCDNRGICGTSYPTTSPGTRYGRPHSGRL
Experimental: (§1) Subsequently, the antigen solutions having the above-described concentrations were each added to the plate in an amount of 50 μL/well, and the plate was incubated at room temperature for 1 hour. Then, the antigen solution was removed, and the plate was washed with 0.05% Tween 20-PBS three times. Thereafter, the 1-μg/mL biotinylated antibody solution was added in an amount of 50 μL/well, and the plate was incubated at room temperature for 1 hour.
(§2) Then, after removing the streptavidin-HRP solution and washing the plate with 0.05% Tween 20-PBS three times, a substrate solution (SuperSignal ELISA Femto Maximum Sensitivity Substrate (registered trademark); Pierce Biotechnology, Inc.) was added in an amount of 100 μL/well. One minute thereafter, the luminescence intensity was measured using a luminometer, Fluoroskan Ascent FL (trade name, Thermo Electron Corporation).
(§3) The numerical values shown in Table 1 represent the minimum values of the antigen solution concentration having an S/N ratio of higher than 2 (hereinafter, referred to as “detection limit concentration”) and the unit of the numerical values is pg/mL. […]

[15] = target: T1, soluble-type human DSG3-mouse IgG2aFc …; assay: sandwich ELISA, luminescence over blank; immobilized DF366m, detection MAB1720; antigen 1000 pg/mL
Experimental: as §1, §2
(§4) The numerical values shown in Table 1 represent the minimum values of the antigen solution concentration having an S/N ratio of higher than 2 (hereinafter, referred to as “detection limit concentration”) and the unit of the numerical values is pg/mL. The S/N ratio was determined by dividing the luminescence intensity at the respective antigen solution concentrations ([…]) by the luminescence intensity of an antigen-free blank antigen solution (0 μg/mL).

[16] = target: T1, soluble-type human DSG3-mouse IgG2aFc …; assay: sandwich ELISA, luminescence over blank; immobilized DF366m, detection MAB1720; antigen 5000 pg/mL
Experimental: as §1, §2, §4

[17] = target: T1, soluble-type human DSG3-mouse IgG2aFc …; assay: sandwich ELISA, luminescence over blank; immobilized DF366m, detection MAB1720; antigen 1 pg/mL
Experimental: as §1, §2, §4

[18] = target: T1, soluble-type human DSG3-mouse IgG2aFc …; assay: sandwich ELISA, luminescence over blank; immobilized DF366m, detection DF151; antigen 40 pg/mL
Experimental: as §1, §2, §4

[19] = target: T1, soluble-type human DSG3-mouse IgG2aFc …; assay: sandwich ELISA, luminescence over blank; immobilized DF366m, detection DF151; antigen 10 pg/mL
Experimental: as §1, §2, §3

[20] = target: T1, soluble-type human DSG3-mouse IgG2aFc …; assay: sandwich ELISA, luminescence over blank; immobilized DF366m, detection MAB1720; antigen 40 pg/mL
Experimental: as §1, §2, §4

[21] = target: T1, soluble-type human DSG3-mouse IgG2aFc …; assay: sandwich ELISA, luminescence over blank; immobilized DF366m, detection MAB1720; antigen 200 pg/mL
Experimental: as §1, §2, §4

[22] = target: T1, soluble-type human DSG3-mouse IgG2aFc …; assay: sandwich ELISA, luminescence over blank; immobilized DF366m, detection DF151; antigen 5000 pg/mL
Experimental: as §1, §2, §4

[23] = target: T1, soluble-type human DSG3-mouse IgG2aFc …; assay: sandwich ELISA, luminescence over blank; immobilized DF366m, detection DF151; antigen 25000 pg/mL
Experimental: as §1, §2, §4

[24] = target: T1, soluble-type human DSG3-mouse IgG2aFc …; assay: SPFS sandwich; immobilized DF366 (so in the source), detection MAB1720; antigen 1,000 pg/mL (µg/mL in the source)
Experimental: (§5) Once again, a Tris-buffered saline (TBS) containing 0.05% by mass of Tween 20 was fed and circulated in the flow path for 10 minutes to wash the flow path. Then, with the flow path being filled with PBS buffer (pH 7.4), the assay area was irradiated with laser light (640 nm, 40 μW) from the back side of the metal thin films, and the fluorescence intensity was measured using a photomultiplier tube (PMT) arranged above the assay area. The thus measured value was defined as “signal” (S) at a desmoglein 3 concentration of 100 μg/mL.
(§6) Further, the fluorescence intensity was measured by the same procedures as described above, except that the desmoglein 3 concentration of the fed PBS solution was changed to 10,000 μg/mL, 5,000 μg/mL, 1,000 μg/mL, 200 μg/mL, 50 μg/mL, 10 μg/mL, 3.16 μg/mL, 1 μg/mL, 0.316 μg/mL, 0.1 μg/mL and 0.031 μg/mL. The thus measured values were each defined as “signal” (S) at the respective concentrations.
In addition, when the antibody combination was variously changed in the same manner as in Example 1, it was confirmed that plots similar to the one shown in FIG. 6 can be obtained.

[25] = target: T1, soluble-type human DSG3-mouse IgG2aFc …; assay: sandwich ELISA, luminescence over blank; immobilized DF366m, detection DF151; antigen 200 pg/mL
Experimental: as §1, §2, §4

[26] = target: T1, soluble-type human DSG3-mouse IgG2aFc …; assay: SPFS sandwich; immobilized DF366m, detection DF151; antigen 1,000 pg/mL (µg/mL in the source)
Experimental: as §5
On another front, the fluorescence intensity was also measured by the same procedures as described above, except that a PBS solution containing no desmoglein 3 (0 μg/mL) was fed in place of the PBS solution containing 100 μg/mL of desmoglein 3. The thus measured value was defined as “noise” (N).
as §6

[27] = target: T1, soluble-type human DSG3-mouse IgG2aFc …; assay: sandwich ELISA, luminescence over blank; immobilized DF366m, detection DF151; antigen 1 pg/mL
Experimental: as §1, §2, §3

[28] = target: T1, soluble-type human DSG3-mouse IgG2aFc …; assay: sandwich ELISA, luminescence over blank; immobilized DF366m, detection MAB1720; antigen 25000 pg/mL
Experimental: as §1, §2, §4

[29] = target: T1, soluble-type human DSG3-mouse IgG2aFc …; assay: sandwich ELISA, luminescence over blank; immobilized DF366m, detection DF151; antigen 1000 pg/mL
Experimental: as §1, §2, §4

Molecule: MAB1720 antibody (R&D Systems, Inc., Catalog No.: MAB1720)
- S/N ratio [1]: 2.8
- S/N ratio [2]: 1.1
- detection limit concentration (lowest antigen concentration with S/N > 2) [3]: 5000 pg/mL
- detection limit concentration (lowest antigen concentration with S/N > 2) [4]: 5000 pg/mL
- S/N ratio [5]: 1.3
- S/N ratio [6]: 53
- S/N ratio [7]: 1
- S/N ratio [8]: 34.5
- S/N ratio [9]: 11.4
- detection limit concentration (lowest antigen concentration with S/N > 2) [10]: 5000 pg/mL
- detection limit concentration [11]: 1000 pg/mL
- S/N ratio [12]: 0.9
- detection limit concentration (lowest antigen concentration with S/N > 2) [13]: 1000 pg/mL

B1: DF366m (DF366m[I] antibody) (antibody, mouse IgG2a, kappa, V domains shown)
VH: EVQLQQSGPELVKPGASVKISCKASGYTFTDYNMDWVKQSHGESLEWIGYIYPNNGGSGYNQKFKSKATLTVDKSSSTAYMELHSLTSEDSAVYYCARRDSYYGFDMAWFAYWGQGTLVTVSA
VL: DIQMTQSPASLSASVGETVTITCRPSENIYNNLAWYQQKQGKSPQLLVYVATNLAEGVPSRFSGSGSGTRFSLKINSLQPEDFGKYYCQHSYGTPWTFGGGTKLEIKR
notes: Complete antibody; Plain when immobilized; biotinylated (Biotin-AC5-Osu) when used as detection antibody; also called DF366m antibody
- S/N ratio [14]: 1
- S/N ratio [15]: 3.9
- S/N ratio [16]: 16.6
- S/N ratio [17]: 0.9
- S/N ratio [18]: 1.2
- S/N ratio [19]: 1.1
- S/N ratio [20]: 0.9
- S/N ratio [21]: 1.8
- S/N ratio [22]: 37.3
- S/N ratio [23]: 186
- S/N ratio [24]: 92.2
- S/N ratio [25]: 2.3
- S/N ratio [26]: 140
- S/N ratio [27]: 1
- S/N ratio [28]: 80.4
- S/N ratio [29]: 8.1
